# Source: PMC6686035, “Regulation of Iron Storage by CsrA Supports Exponential Growth of Escherichia coli”
# B1: dps EMSA transcript (ssRNA)
# RNA: GGGUUAAUUACUGGGACAUAACAUCAAGAGGAUAUGAAAUUAUGAGUACCGC
# Target: CsrA-His6 (Escherichia coli, UniProt P69913 1-61)
# Test: EMSA; 10 mM Mg2+; apparent KD, cooperative equation; single shift; EMSA: 0.5 nM RNA, 10 mM MgCl2, 100 mM KCl, 32.5 ng yeast RNA, 20 mM DTT, 7.5% glycerol, 4 U SUPERasin, 37 C 30 min (pH not stated); footprint: 2 nM RNA, 10 mM Tris-HCl pH 7.5, 10 mM MgCl2, 100 mM KCl, 40 ng yeast RNA, 7.5% glycerol, 37 C
# Conditions: protein: recombinant; tags: His6 (C-terminal per name); chain copies: 2; label: 5'-32P
# Sequence of CsrA-His6 (P69913 whole entry): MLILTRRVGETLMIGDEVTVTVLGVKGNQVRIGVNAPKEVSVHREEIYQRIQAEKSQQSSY
binder,measurement,value
B1,Kd,25 nM
